From patent US20100266532A1, “METHODS FOR INHIBITING SCARRING” (Renovo Limited, priority 2007, published 2010)

System: 1 cm incisional rat wounds
Test: Rat model of wound healing and scarring, escalating versus constant doses, macroscopic VAS
Format: in vivo
Protocol: FIG. 11 is a graph comparing the mean differences between macroscopic VAS scores of scars formed on healing of 1 cm incisional rat wounds treated with a diluent control (“placebo treated wounds”), and scars formed on healing of wounds provided with one of the following regimes: • i) TGF-β3 control treatment using 20 ng TGF-β3 per centimetre; • ii) TGF-β3 control treatment using 100 ng TGF-β3 per centimetre; or • iii) TGFβ3 treatment using escalating doses of TGF-β3 administered in sequential incidences of treatment.
In each case the wounds were subject to two incidences of treatment, the first prior to wounding and the second approximately 24 hours later.
Placebo treated control wounds were provided with two incidences of treatment, each of which consisted of administration of a diluent. These placebo treated wounds provide a baseline value for scarring, with reference to which scar inhibition produced by TGF-β3 treatments may be determined. “Control treated wounds” were provided with two incidences of treatment, each comprising injections of TGF-β3 at either 20 ng/100 μl or 100 ng/100 μl (the same concentration of TGF-β3 being injected in each incidence of treatment). The “treated wounds” were provided with an escalating dose regimen in which the first incidence of treatment comprised an injection of 20 ng/100 μl TGFβ3, while the second incidence of treatment comprised an injection of 100 ng/100 μl TGFβ3.
Each animal received two wounds, and these were arranged so that the wounds of each animal included placebo treated wounds, as well as either treated wounds (examples treated using escalating doses of TGF-β3 administered in sequential incidences of treatment), or control treated wounds (receiving control treatment with TGF-β3 at the same dose in each incidence of treatment). This permits comparison between scars formed on healing of placebo treated wounds and treated or control treated wounds within the same subject. […]
Scars were assessed, and VAS scores produced, 70 days after wounding. […]

B1: TGF-β3: well-known anti-scarring growth factor, Sequence ID No. 1; labelled "Juvista" in FIGS. 8 and 9 (protein, listed as Homo sapiens)
chain: ALDTNYCFRNLEENCCVRPLYIDFRQDLGWKWVHEPKGYYANFCSGPCPYLRSADTTHSTVLGLYNTLNPEASASPCCVPQDLEPLTILYYVGRTPKVEQLSNMVVKSCKCS
scarring compared to placebo (macroscopic VAS) (dosed twice with either 20 ng/100 μl or 100 ng/100 μl, 24 hours apart, 70 days after wounding): displayed a reduction in scarring | inhibition of scarring (macroscopic VAS) versus constant doses (escalating: 20 ng/100 μl then 100 ng/100 μl approximately 24 hours later, 70 days after wounding): much larger magnitude of effect | inhibition of scarring, macroscopic images (escalating: 20 ng/100 μl then 100 ng/100 μl approximately 24 hours later, 70 days post wounding): greatest inhibition in scarring
